Source: patent US20160145322A1 (CRUCELL HOLLAND B V, published 2016)

Experiments:
[1] = molecular target: G protein of RSV B/18537 (ATCC Cat. No. VR-1580), on virus (Respiratory syncytial virus B/18537); test: cell-based or functional assay
[2] = molecular target: T1, G protein of RSV A/Long (ATCC Cat. No. VR-26), on virus (Respiratory syncytial virus A/Long, UniProt P20895 1-298); test: cell-based or functional assay
T1 sequence (looked up): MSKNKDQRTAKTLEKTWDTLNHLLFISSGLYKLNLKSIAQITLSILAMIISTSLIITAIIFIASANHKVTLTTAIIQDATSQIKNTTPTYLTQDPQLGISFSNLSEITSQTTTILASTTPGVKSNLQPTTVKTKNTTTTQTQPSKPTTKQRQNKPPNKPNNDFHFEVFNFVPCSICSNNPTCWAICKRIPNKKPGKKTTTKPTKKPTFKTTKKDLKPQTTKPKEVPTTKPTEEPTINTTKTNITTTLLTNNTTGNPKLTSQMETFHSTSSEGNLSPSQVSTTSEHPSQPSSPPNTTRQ

[3] = molecular target: T2, Sym-1705 (RSV-G type A central region peptide 145-201) (Respiratory syncytial virus type A, not fully specified; N-terminal biotin); test: Octet Red384, streptavidin tips with biotinylated peptide
T2 construct: Synthetic peptide
T2 peptide: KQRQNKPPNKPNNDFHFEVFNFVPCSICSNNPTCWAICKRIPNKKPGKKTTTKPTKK

[4] = molecular target: T3, Sym-1789 (RSV-G type B central region peptide 145-184) (Respiratory syncytial virus type B, N-terminal biotin); test: as above
T3 construct: Synthetic peptide, C-terminally truncated against Sym-1788
T3 peptide: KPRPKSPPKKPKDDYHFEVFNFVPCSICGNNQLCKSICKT

[5] = molecular target: T4, Sym-1788 (RSV-G type B central region peptide 145-201) (Respiratory syncytial virus type B, N-terminal biotin); test: as above
T4 construct: Synthetic peptide
T4 peptide: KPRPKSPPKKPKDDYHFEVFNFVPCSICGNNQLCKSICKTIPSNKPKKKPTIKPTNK

[6] = molecular target: T5, Sym-1706 (RSV G central conserved domain (CCD) peptide, type A 145-184) (Respiratory syncytial virus type A, N-terminal biotin); test: as above
T5 construct: Synthetic peptide, C-terminally truncated against Sym-1705
T5 peptide: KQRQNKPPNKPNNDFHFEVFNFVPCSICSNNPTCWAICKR

[7] = molecular target: T2, Sym-1705 (RSV-G type A central region …); test: ELISA, antibody titrated on biotinylated peptide on avidin plate
[8] = molecular target: T3, Sym-1789 (RSV-G type B central region …); test: as above
[9] = molecular target: T4, Sym-1788 (RSV-G type B central region …); test: as above
[10] = molecular target: T5, Sym-1706 (RSV G central conserved …); test: as above
[11] = molecular target: T6, Recombinant RSV attachment protein (G protein) corresponding to RSV B/B1 (Respiratory syncytial virus B/B1, UniProt O36633 65-299); test: ELISA, coated recombinant protein
T6 construct: also called RSV Gb; Gb
T6 sequence: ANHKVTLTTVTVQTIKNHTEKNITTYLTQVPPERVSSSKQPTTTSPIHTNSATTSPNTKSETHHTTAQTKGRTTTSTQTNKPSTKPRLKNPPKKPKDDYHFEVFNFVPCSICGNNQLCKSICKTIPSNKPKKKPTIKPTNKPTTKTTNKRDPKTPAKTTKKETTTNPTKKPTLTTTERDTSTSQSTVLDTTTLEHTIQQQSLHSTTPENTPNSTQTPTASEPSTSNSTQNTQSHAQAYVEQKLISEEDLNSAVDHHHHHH

B1: CB030.1 (antibody, V domains shown)
VH: QVQLVQSGAEMKRPGSSVKVSCKASGGTFSTFAINWVRQAPGQGFEWMGGVIPGFDSANYAQKFQGRLTMSADESTSTVYMELSSLRSDDTAVYYCAGNSGYCSGDSCAPNWGPGTLVTVSS
VL: DIVMTQSPLSLPVTPGEPASISCRSSQSLVHSNGYSYLDWYLQKPGQSPQLLIYLGSNRPSGVPDRFSGSGSGTDFTLKISRVEAEDVGVYFCMQNLQTPTFGGGTKVEIK
notes: Tested as human IgG from the pCP9-kappa vector
In the case of B1, the “Neutralization IC50 (ng/mL), plaque reduction assay, RSV B/18537” value [1] is reported as 18.3 ng/mL, the “Neutralization IC50, plaque reduction assay, RSV A/Long” value [2] is reported as 0.037 µg/mL and the “Binding (Octet) [RU]” value [3] is reported as 0.47 RU. The “Binding (Octet) [RU]” value [4] was 1.36 RU, the “Binding (Octet) [RU]” value [5] was 0.73 RU and the “Binding (Octet) [RU]” value [6] was 0.53 RU. It also gave an IC50 [7] of roughly 0.02 µg/mL, an IC50 [8] of roughly 0.02 µg/mL and an IC50 [9] of roughly 0.02 µg/mL. The IC50 [10] was roughly 0.02 µg/mL and the binding result [11] was “binds”.
